Measurements published in patent publication US20160297884A1.

Legend:
[1] = biological target: B-cell maturation antigen (BCMA) (human) (UniProt Q02223); test: cell-based or functional assay
[2] = biological target: BCMA expressed on MM1S cells (human) (UniProt Q02223); test: cell-based or functional assay
Sequence of BCMA expressed on MM1S cells (human) (Q02223 whole entry): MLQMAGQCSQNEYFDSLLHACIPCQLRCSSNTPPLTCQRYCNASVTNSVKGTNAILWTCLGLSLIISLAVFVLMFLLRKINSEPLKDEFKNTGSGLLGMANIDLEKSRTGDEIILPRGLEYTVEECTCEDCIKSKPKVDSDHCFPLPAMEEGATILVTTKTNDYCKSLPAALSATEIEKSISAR

Sequence of B-cell maturation antigen (BCMA) (human) (Q02223 whole entry): as above

Row | Binder | % CD107a+ (in CD8+) (degranulation, MM1S cells, Donor 2) [1] [%] | MFI CD107a+ (degranulation, MM1S cells, Donor 2) [1] [MFI] | % CD107a+ (in CD8+) (degranulation, MM1S cells, Donor 3) [1] [%] | MFI CD107a+ (degranulation, MM1S cells, Donor 3) [1] [MFI] | other results
1 | P5AC1-V1 (protein) EVQLLESGGGLVQPGGSLRLSCAASGFTFSSYAMNWVRQAPGKGLEWVSAILSSGGSTYYADSVKGRFTISRDNSKNTLYLQMNSLRAEDTAVYYCARYWPMDIWGQGTLVTVSSGGGGSGGGGSGGGGSEIVLTQSPGTLSLSPGERATLSCRGGQSVSSSYLAWYQQKPGQAPRLLMYDASIRATGIPDRFSGSGSGTDFTLTISRLEPEDFAVYYCQQYQSWPLTFGQGTKVEIKGLAVSTISSFFPPGYQIYIWAPLAGTCGVLLLSLVITLYCKRGRKKLLYIFKQPFMRPVQTTQEEDGCSCRFPEEEEGGCELRVKFSRSADAPAYQQGQNQLYNELNLGRREEYDVLDKRRGRDPEMGGKPRRKNPQEGLYNELQKDKMAEAYSEIGMKGERRRGKGHDGLYQGLSTATKDTYDALHMQALPPR | 68.6 | 2190 | – | – | –
2 | P6AP-V1 (protein) EVQLLESGGGLVQPGGSLRLSCAASGFTFGSYAMTWVRQAPGKGLEWVSAISGSGGNTFYADSVKGRFTISRDNSKNTLYLQMNSLRAEDTAVYYCARVSPIAAPMDYWGQGTLVTVSSGGGGSGGGGSGGGGSEIVLTQSPGTLSLSPGERATLSCRASQLGSFYLAWYQQKPGQAPRLLIYGASSRATGIPDRFSGSGSGTDFTLTISRLEPEDFAVYYCQHYNYPPSFTFGQGTKVEIKGLAVSTISSFFPPGYQIYIWAPLAGTCGVLLLSLVITLYCKRGRKKLLYIFKQPFMRPVQTTQEEDGCSCRFPEEEEGGCELRVKFSRSADAPAYQQGQNQLYNELNLGRREEYDVLDKRRGRDPEMGGKPRRKNPQEGLYNELQKDKMAEAYSEIGMKGERRRGKGHDGLYQGLSTATKDTYDALHMQALPPR | – | – | – | – | % CD107a+ (in CD8+) (degranulation, Donor 1, co-culture with MM1S) [2]: 46.4%; MFI CD107a+ (degranulation, CD8+ T cells, Donor 1, co-culture with MM1S) [2]: 1850 MFI
3 | COM22-V1 (protein) EVQLLESGGGLVQPGGSLRLSCAASGFTFSSYAMNWVRQAPGKGLEWVSAISDSGGSRWYADSVKGRFTISRDNSKNTLYLQMNSLRAEDTAVYYCTRYWPMDIWGQGTLVTVSSGGGGSGGGGSGGGGSEIVLTQSPGTLSLSPGERATLSCRASVRVSSTYLAWYQQKPGQAPRLLMYDASIRATGIPDRFSGSGSGTDFTLTISRLEPEDFAVYYCQQYMKWPLTFGQGTKVEIKGLAVSTISSFFPPGYQIYIWAPLAGTCGVLLLSLVITLYCKRGRKKLLYIFKQPFMRPVQTTQEEDGCSCRFPEEEEGGCELRVKFSRSADAPAYQQGQNQLYNELNLGRREEYDVLDKRRGRDPEMGGKPRRKNPQEGLYNELQKDKMAEAYSEIGMKGERRRGKGHDGLYQGLSTATKDTYDALHMQALPPR | – | – | 76.1 | 2220 | –
4 | P5A-V1 (protein) EVQLLESGGGLVQPGGSLRLSCAASGFTFSSYAMNWVRQAPGKGLEWVSAISDSGGSTYYADSVKGRFTISRDNSKNTLYLQMNSLRAEDTAVYYCARYWPMDIWGQGTLVTVSSGGGGSGGGGSGGGGSEIVLTQSPGTLSLSPGERATLSCRASQSVSSSYLAWYQQKPGQAPRLLMYDASIRATGIPDRFSGSGSGTDFTLTISRLEPEDFAVYYCQQYGSWPLTFGQGTKVEIKGLAVSTISSFFPPGYQIYIWAPLAGTCGVLLLSLVITLYCKRGRKKLLYIFKQPFMRPVQTTQEEDGCSCRFPEEEEGGCELRVKFSRSADAPAYQQGQNQLYNELNLGRREEYDVLDKRRGRDPEMGGKPRRKNPQEGLYNELQKDKMAEAYSEIGMKGERRRGKGHDGLYQGLSTATKDTYDALHMQALPPR | 77.6 | 2670 | – | – | –
5 | P5AC16-V1 (protein) EVQLLESGGGLVQPGGSLRLSCAASGFTFSSYAMNWVRQAPGKGLEWVSAISDFGGSTYYADSVKGRFTISRDNSKNTLYLQMNSLRAEDTAVYYCARYWPMDIWGQGTLVTVSSGGGGSGGGGSGGGGSEIVLTQSPGTLSLSPGERATLSCRASQSVSDLYLAWYQQKPGQAPRLLMYDASIRATGIPDRFSGSGSGTDFTLTISRLEPEDFAVYYCQQYQTWPLTFGQGTKVEIKGLAVSTISSFFPPGYQIYIWAPLAGTCGVLLLSLVITLYCKRGRKKLLYIFKQPFMRPVQTTQEEDGCSCRFPEEEEGGCELRVKFSRSADAPAYQQGQNQLYNELNLGRREEYDVLDKRRGRDPEMGGKPRRKNPQEGLYNELQKDKMAEAYSEIGMKGERRRGKGHDGLYQGLSTATKDTYDALHMQALPPR | 61.6 | 1860 | – | – | –
6 | PC1C12-V1 (protein) EVQLLESGGGLVQPGGSLRLSCAASGFTFSSYPMSWVRQAPGKGLEWVSAIGGSGGWSYYADSVKGRFTISRDNSKNTLYLQMNSLRAEDTAVYYCARYWPMDSWGQGTLVTVSSGGGGSGGGGSGGGGSEIVLTQSPGTLSLSPGERATLSCWLSQSVSSTYLAWYQQKPGQAPRLLIYDASSRAPGIPDRFSGSGSGTDFTLTISRLEPEDFAVYYCQQYSEWPLTFGQGTKVEIKGLAVSTISSFFPPGYQIYIWAPLAGTCGVLLLSLVITLYCKRGRKKLLYIFKQPFMRPVQTTQEEDGCSCRFPEEEEGGCELRVKFSRSADAPAYQQGQNQLYNELNLGRREEYDVLDKRRGRDPEMGGKPRRKNPQEGLYNELQKDKMAEAYSEIGMKGERRRGKGHDGLYQGLSTATKDTYDALHMQALPPR | – | – | 68.2 | 1960 | –
7 | PC1-V1 (protein) EVQLLESGGGLVQPGGSLRLSCAASGFTFSSYPMSWVRQAPGKGLEWVSAIGGSGGSTYYADSVKGRFTISRDNSKNTLYLQMNSLRAEDTAVYYCARYWPMDSWGQGTLVTVSSGGGGSGGGGSGGGGSEIVLTQSPGTLSLSPGERATLSCRASQSVSSTYLAWYQQKPGQAPRLLIYDASSRAPGIPDRFSGSGSGTDFTLTISRLEPEDFAVYYCQQYSTSPLTFGQGTKVEIKGLAVSTISSFFPPGYQIYIWAPLAGTCGVLLLSLVITLYCKRGRKKLLYIFKQPFMRPVQTTQEEDGCSCRFPEEEEGGCELRVKFSRSADAPAYQQGQNQLYNELNLGRREEYDVLDKRRGRDPEMGGKPRRKNPQEGLYNELQKDKMAEAYSEIGMKGERRRGKGHDGLYQGLSTATKDTYDALHMQALPPR | – | – | 75.6 | 2180 | –
